Changes are numbered by the printed parent chain.
T1: TROP2 on TROP2-positive NCI-H1975 cells (human, UniProt P09758 27-323)
T1 sequence: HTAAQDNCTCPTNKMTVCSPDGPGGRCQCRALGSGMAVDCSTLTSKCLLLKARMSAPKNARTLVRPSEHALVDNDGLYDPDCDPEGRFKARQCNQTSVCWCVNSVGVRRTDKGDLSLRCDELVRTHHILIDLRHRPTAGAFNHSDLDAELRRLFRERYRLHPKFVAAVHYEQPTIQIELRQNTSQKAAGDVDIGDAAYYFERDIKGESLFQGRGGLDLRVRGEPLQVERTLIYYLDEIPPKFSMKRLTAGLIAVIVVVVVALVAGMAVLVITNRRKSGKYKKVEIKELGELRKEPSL

T2: Human TROP2 Protein, His Tag (Acro Biosystems) (human, UniProt P09758 27-274)
T2 construct: Bought antigen used at 50 nM in the Octet screen; also called TACSTD2; not shown: His tag
T2 sequence (looked up): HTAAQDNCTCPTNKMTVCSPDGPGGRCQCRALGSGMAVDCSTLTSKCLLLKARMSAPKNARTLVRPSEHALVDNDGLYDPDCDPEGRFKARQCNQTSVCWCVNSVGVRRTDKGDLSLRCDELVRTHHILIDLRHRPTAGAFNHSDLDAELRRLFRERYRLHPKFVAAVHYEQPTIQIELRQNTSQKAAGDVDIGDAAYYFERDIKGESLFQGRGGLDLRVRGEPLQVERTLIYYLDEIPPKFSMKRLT

B1: MYT13279 (antibody, V domains shown)
VH: QVQLQESGPGLVKPSETLSLTCTVSGGSISSYGVHWIRQPPGKGLEWIGVIWTSGVTDYNSALMGRVTISVDTSKNQFSLKLSSVTAADTAVYYCARDGDYDHYTMDYWGQGTLVTVSS
VL: DIVMTQSPDSLAVSLGERATINCRASKSVSTSGYSYMHWYQQKPGQPPKLLIYLASNLHSGVPDRFSGSGSGTDFTLTISSLQAEDVAVYYCQHSRELPYTFGQGTKLEIK
B2: MYT13446 (antibody, V domains shown)
VH: B1 VH
VL: B1 VL with T101H
B3: MYT13289 (antibody, V domains shown)
VH: B1 VH
VL: B1 VL with H59E, Q93H
B4: MYT13288 (antibody, V domains shown)
VH: B1 VH with D102H, H103R
VL: B1 VL with H59E, Q93H
B5: MYT13283 (antibody, V domains shown)
VH: B1 VH with D102H, H103R
VL: B1 VL with H59E, S60H
B6: MYT13299 (antibody, V domains shown)
VH: B1 VH
VL: B1 VL with H59E, E97H
B7: MYT13285 (antibody, V domains shown)
VH: B1 VH with H103R, M106H
VL: B1 VL with H59E, S60H
B8: MYT13300 (antibody, V domains shown)
VH: B1 VH with H103R, M106H
VL: B1 VL with H59E, E97H
B9: MYT13298 (antibody, V domains shown)
VH: B1 VH with D102H, H103R
VL: B1 VL with H59E, E97H
B10: MYT11705 (antibody, V domains shown)
VH: B1 VH with G26H, H103R
VL: B1 VL with H59E
notes: hu7E6SVG variant, His at HCV position 26 (H1 01); screened as IgG in Expi293 supernatant
B11: MYT11726 (antibody, V domains shown)
VH: B1 VH with S61H, H103R
VL: B1 VL with H59E
notes: hu7E6SVG variant, His at HCV position 61 (H2 12); screened as IgG in Expi293 supernatant
B12: MYT11727 (antibody, V domains shown)
VH: B1 VH with A62H, H103R
VL: B1 VL with H59E
notes: hu7E6SVG variant, His at HCV position 62 (H2 13); screened as IgG in Expi293 supernatant
B13: MYT11715 (antibody, V domains shown)
VH: B1 VH with V50H, H103R
VL: B1 VL with H59E
notes: hu7E6SVG variant, His at HCV position 50 (H2 01); screened as IgG in Expi293 supernatant
B14: MYT11716 (antibody, V domains shown)
VH: B1 VH with I51H, H103R
VL: B1 VL with H59E
notes: hu7E6SVG variant, His at HCV position 51 (H2 02); screened as IgG in Expi293 supernatant
B15: MYT11707 (antibody, V domains shown)
VH: B1 VH with S28H, H103R
VL: B1 VL with H59E
notes: hu7E6SVG variant, His at HCV position 28 (H1 03); screened as IgG in Expi293 supernatant
B16: MYT11711 (antibody, V domains shown)
VH: B1 VH with Y32H, H103R
VL: B1 VL with H59E
notes: hu7E6SVG variant, His at HCV position 32 (H1 07); screened as IgG in Expi293 supernatant
B17: MYT11714 (antibody, V domains shown)
VH: B1 VH with H35A, H103R
VL: B1 VL with H59E
notes: hu7E6SVG variant, Ala in place of His at HCV position 35 (H1 10); screened as IgG in Expi293 supernatant
B18: MYT11723 (antibody, V domains shown)
VH: B1 VH with D58H, H103R
VL: B1 VL with H59E
notes: hu7E6SVG variant, His at HCV position 58 (H2 09); screened as IgG in Expi293 supernatant
B19: MYT11721 (antibody, V domains shown)
VH: B1 VH with V56H, H103R
VL: B1 VL with H59E
notes: hu7E6SVG variant, His at HCV position 56 (H2 07); screened as IgG in Expi293 supernatant
B20: MYT11712 (antibody, V domains shown)
VH: B1 VH with G33H, H103R
VL: B1 VL with H59E
notes: hu7E6SVG variant, His at HCV position 33 (H1 08); screened as IgG in Expi293 supernatant
B21: MYT11729 (antibody, V domains shown)
VH: B1 VH with M64H, H103R
VL: B1 VL with H59E
notes: hu7E6SVG variant, His at HCV position 64 (H2 15); screened as IgG in Expi293 supernatant
B22: MYT11724 (antibody, V domains shown)
VH: B1 VH with Y59H, H103R
VL: B1 VL with H59E
B23: MYT11713 (antibody, V domains shown)
VH: B1 VH with V34H, H103R
VL: B1 VL with H59E
notes: hu7E6SVG variant, His at HCV position 34 (H1 09); screened as IgG in Expi293 supernatant
B24: MYT11732 (antibody, V domains shown)
VH: B1 VH with R97H, H103R
VL: B1 VL with H59E
notes: hu7E6SVG variant, His at HCV position 97 (H3 02); screened as IgG in Expi293 supernatant
B25: MYT11728 (antibody, V domains shown)
VH: B1 VH with L63H, H103R
VL: B1 VL with H59E
notes: hu7E6SVG variant, His at HCV position 63 (H2 14); screened as IgG in Expi293 supernatant
B26: MYT11706 (antibody, V domains shown)
VH: B1 VH with G27H, H103R
VL: B1 VL with H59E
notes: hu7E6SVG variant, His at HCV position 27 (H1 02); screened as IgG in Expi293 supernatant
B27: MYT11709 (antibody, V domains shown)
VH: B1 VH with S30H, H103R
VL: B1 VL with H59E
notes: hu7E6SVG variant, His at HCV position 30 (H1 05); screened as IgG in Expi293 supernatant
B28: MYT11722 (antibody, V domains shown)
VH: B1 VH with T57H, H103R
VL: B1 VL with H59E
notes: hu7E6SVG variant, His at HCV position 57 (H2 08); screened as IgG in Expi293 supernatant
B29: MYT11725 (antibody, V domains shown)
VH: B1 VH with N60H, H103R
VL: B1 VL with H59E
notes: hu7E6SVG variant, His at HCV position 60 (H2 11); screened as IgG in Expi293 supernatant
B30: MYT11719 (antibody, V domains shown)
VH: B1 VH with S54H, H103R
VL: B1 VL with H59E
notes: hu7E6SVG variant, His at HCV position 54 (H2 05); screened as IgG in Expi293 supernatant
B31: MYT11710 (antibody, V domains shown)
VH: B1 VH with S31H, H103R
VL: B1 VL with H59E
notes: hu7E6SVG variant, His at HCV position 31 (H1 06); screened as IgG in Expi293 supernatant
B32: MYT11708 (antibody, V domains shown)
VH: B1 VH with I29H, H103R
VL: B1 VL with H59E
notes: hu7E6SVG variant, His at HCV position 29 (H1 04); screened as IgG in Expi293 supernatant
B33: MYT11720 (antibody, V domains shown)
VH: B1 VH with G55H, H103R
VL: B1 VL with H59E
notes: hu7E6SVG variant, His at HCV position 55 (H2 06); screened as IgG in Expi293 supernatant
B34: MYT11730 (antibody, V domains shown)
VH: B1 VH with G65H, H103R
VL: B1 VL with H59E
notes: hu7E6SVG variant, His at HCV position 65 (H2 16); screened as IgG in Expi293 supernatant
B35: MYT11718 (antibody, V domains shown)
VH: B1 VH with T53H, H103R
VL: B1 VL with H59E
notes: hu7E6SVG variant, His at HCV position 53 (H2 04); screened as IgG in Expi293 supernatant
B36: MYT11731 (antibody, V domains shown)
VH: B1 VH with A96H, H103R
VL: B1 VL with H59E
notes: hu7E6SVG variant, His at HCV position 96 (H3 01); screened as IgG in Expi293 supernatant

What follows are binders tested against T1, TROP2 on TROP2-positive NCI-H1975 cells (assay: cell-based or functional assay).
With B1 the “FOW H1975 (10 nM)” value was 1.37 fold over parent antibody.
B2 was tested, and the “FOW H1975 (10 nM)” value was 1.09 fold over parent antibody.
For B3, the “FOW H1975 (10 nM)” value was 1.37 fold over parent antibody.
With B4 the “FOW H1975 (10 nM)” value was 1.15 fold over parent antibody.
In the case of B5, the “FOW H1975 (10 nM)” value is reported as 1.51 fold over parent antibody.
With B6 the “FOW H1975 (10 nM)” value was 1.35 fold over parent antibody.
B7 was tested, and the “FOW H1975 (10 nM)” value was 1.61 fold over parent antibody.
In the case of B8, the “FOW H1975 (10 nM)” value is reported as 1.39 fold over parent antibody.
With B9 the “FOW H1975 (10 nM)” value was 1.59 fold over parent antibody.

What follows are binders tested against T2, Human TROP2 Protein, His Tag (Acro …) (assay: BLI (Octet) [1/2]).
Procedure: After allowing for four days of protein expression, cell culture supernatants were collected, quantified by SDS-PAGE analysis (DNS), and the pH dependence of the variant was evaluated using biolayer interferometry (BLI) on an Octet RED 96e instrument. Briefly, cell culture supernatants were diluted based on qualitative expression level of the variant determined by visual examination of SDS-PAGE gels, 5 μL of cell culture supernatant was diluted into 195 μL of 1×PBST, pH 7.4 for high expressors, 25 μL of cell culture supernatant was diluted into 175 μL of 1×PBST, pH 7.4 for medium expressors and 100 μL of cell culture supernatant was diluted into 100 μL of 1×PBST, pH 7.4 for low expressors for loading onto the sensor tips. The resulting diluted supernatants were then captured on an anti-human Fc sensor (Forte Bio). A baseline was established using 1×PBST (50 mM Potassium Phosphate Buffer+150 mM NaCl+0.05% Tween 20) pH 7.4, and the sensor was associated with 50 nM of TROP2 (Human TROP2 Protein, His Tag, Acro Biosystems) in 1×PBST pH 7.4 for 120 sec to generate an association curve. In the dissociation phase, the antibody-antigen complex on the sensor was exposed to 1×PBST pH 7.4 or pH 5.4, for 300 sec. Association and dissociation phase curves were examined for the starting ABPC antibody (with no substitutions) and each corresponding antibody variant at pH 5.4 and pH 7.4 to inform on two criteria: a) enhanced dissociation (i.e., higher koff values) at pH 5.4 due to histidine or alanine substitution compared to the starting ABPC, (with no substitutions), and b) reduced dissociation at pH 7.4 (i.e., lower koff values) compared to pH 5.4 in the antibody variant itself and with the starting ABPC (with no substitutions). […] It was also noted that while some mutations obliterated TROP2 binding, others were tolerated with little or n change in TROP2 binding kinetics.
B10: binds.
B11: binds.
B12: binds.
B13: no binding (tested: 50 nM).
B14: binds.
B15: binds.
B16: binds.
B17: binds.
B18: no binding (tested: 50 nM).
B19: binds.
B20: binds.
B21: binds.
B22: binds.
B23: binds.
B24: binds.
B25: binds.
B26: binds.
B27: binds.
B28: binds.
B29: binds.
B30: binds.
B31: binds.
B32: binds.
B33: binds.
B34: binds.
B35: binds.
B36: no binding (tested: 50 nM).
